Changes are numbered by the printed parent chain.
Key:
Test in all cases: EMSA
Conditions in all cases: 10 mM Tris-HCl pH 8, 50 mM KCl, 0.5 mM EDTA, 10% glycerol, 0.5 mM DTT, 10 nM DNA, 25°C 25 min; 8% PAGE in 0.5x TBE
[1] = target: T1, SydR' C114S (CS) C114S (Sinorhizobium meliloti Rm2011) (UniProt Q92XY2)
T1 sequence: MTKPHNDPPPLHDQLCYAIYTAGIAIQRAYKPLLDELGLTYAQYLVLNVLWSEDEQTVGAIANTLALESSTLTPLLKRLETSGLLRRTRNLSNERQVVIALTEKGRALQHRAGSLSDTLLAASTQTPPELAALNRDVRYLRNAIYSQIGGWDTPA

[2] = target: T2, SydR' C16S (SC) C16S (Sinorhizobium meliloti Rm2011) (UniProt Q92XY2)
T2 sequence: T1 sequence with C16S, S114C

[3] = target: T3, SydR' C16S&C114S (SS) C16S;C114S (Sinorhizobium meliloti Rm2011) (UniProt Q92XY2)
T3 sequence: T1 sequence with C16S

For “TCTGGGCTCCTTTGCGCACCAATATAATCAAGATTACCGCGAAAACCAATATCGCGATAAGAGATATGTTGACGAGCAGTTCAATATCTGACAACTTAAATATATCGCGATAACAGTTATCGCTATCAACGAAAGGAAAAAGCC (double strand) [sydR-SMa2023 intergenic region, 144 bp]”, the binding [1] was “binds”, the binding [2] was “binds more weakly” and the binding [3] was “binds more weakly”.
